Experimental data reported in US8815529B2, “Sulfotransferase assay” (Research & Diagnostics Systems, Inc., priority 2011, dated 2014).

Experiments:
Assay type in all cases: biochemical
[1] = SULT1A1 enzyme dose curve, phosphatase-coupled sulfotransferase assay; conditions: for rate of phosphate release: 0.25 mM PAPS, 0.25 mM pNP
Description: (§1) In the following examples, the gPAPP used was recombinant mouse gPAPP expressed in CHO cells as an N-terminal His-tagged recombinant protein containing amino acids from E51 to K356, created by R & D Systems. The sequence was based on accession number NP 808398 from the National Center for Biotechnology Information. The chondroitin sulfate (CS) and p-nitrophenol (pNP) were obtained from Sigma Aldrich. The PAPS was prepared by R & D Systems using recombinant S. cerevisiae ATP sulurylase and P. chrysogenum APS kinase. The APS kinase was also prepared by R & D Systems. Recombinant human SULT1A1, CHST3, CD73, TNAP and Malachite Green Phosphate Detection Kit were from R & D Systems. Protein concentrations were quantified using the Bradford assay as described by Bradford, M. M., A rapid and sensitive method for the quantitation of microgram quantities of protein utilizing the principle of protein-dye binding. Anal Biochem. 1976. Vol 72, Page 248-254, the relevant portions of which are hereby incorporated by reference. Phosphate levels were determined using the Malachite Green Phosphate Detection Kit available from R & D Systems, according to the package instructions. All examples were performed in a buffer of 25 mM Tris at pH 7.5.
A series of reactions was performed by combining various amounts of SULT1A1 with 0.25 mM PAPS and 0.25 mM pNP and with either 1 μg gPAPP alone, or both 1 μg gPAPP and 0.1 μg CD73 in 50 μL of Tris buffer containing 10 mM of MgCl2 at pH 7.5. […] Since gPAPP and CD73 together release two equivalents of phosphate from each PAP, the specific activity of SULT1A1 was averaged to 40.0±1.9 pmol/min/μg. This specific activity is consistent with the known results obtained using radioisotope assays.

[2] = gPAPP activity: Mg2+ and pH dependence; conditions: 0.025 μg gPAPP, 25 nmol PAP
Description: as §1, with “Vol 72, Page 248-254, the relevant portions of which are hereby incorporated by reference.” left out, “All examples were performed in a buffer of 25 mM Tris at pH 7.5.” left out
First, the activity of gPAPP in the presence of Mg^2+ was tested by combining 0.025 μg gPAPP, 25 nmol PAP and increasing amounts of Mg^2+ in 50 μL of assay buffer of 25 mM Tris at pH 7.5. […] In a second experiment, the activity of gPAPP was evaluated at various pH levels. […]

[3] = Coupling capacity of gPAPP; conditions: 10 mM Mg2+, pH 7.5
Description: as §1, with “Vol 72, Page 248-254, the relevant portions of which are hereby incorporated by reference.” left out, “All examples were performed in a buffer of 25 mM Tris at pH 7.5.” left out
In this example, the coupling capacity of gPAPP was determined. […] The coupling capacity of gPAPP was determined by combining 1 μg gPAPP with increasing amounts of PAP, in the presence or absence of 0.5 mM PAPS in 50 μL assay buffer containing 10 mM Mg^2+ at pH 7.5 for either 20 or 40 minutes. […]

[4] = CHST3 enzyme dose curve, gPAPP-coupled assay; conditions: 10 mg/ml CS, 0.5 mM PAPS, 1 μg gPAPP
Description: as §1, with “Vol 72, Page 248-254, the relevant portions of which are hereby incorporated by reference.” left out, “All examples were performed in a buffer of 25 mM Tris at pH 7.5.” left out
First, the optimal concentration for CS was visually determined to be >5 mg/ml and the optimal concentration for PAPS was visually determined to be about 0.5 mM using FIGS. 10A and 10B by finding the substrate concentration corresponding to the highest point in the curves. […]

B1: SULT1A1: recombinant human sulfotransferase SULT1A1 from R & D Systems (protein, UniProt P50225 1-295, looked up)
Sulfotransferase 1A1: MELIQDTSRPPLEYVKGVPLIKYFAEALGPLQSFQARPDDLLISTYPKSGTTWVSQILDMIYQGGDLEKCHRAPIFMRVPFLEFKAPGIPSGMETLKDTPAPRLLKTHLPLALLPQTLLDQKVKVVYVARNAKDVAVSYYHFYHMAKVHPEPGTWDSFLEKFMVGEVSYGSWYQHVQEWWELSRTHPVLYLFYEDMKENPKREIQKILEFVGRSLPEETVDFVVQHTSFKEMKKNPMTNYTTVPQEFMDHSISPFMRKGMAGDWKTTFTVAQNERFDADYAEKMAGCSLSFRSEL
In the case of B1, the specific activity ([1]; averaged over gPAPP alone and gPAPP plus CD73) is reported as 40.0 ± 1.9 pmol/min/µg, the “rate of phosphate release” value ([1]; coupled to both gPAPP and CD73) is reported as 83.7 pmol/min/µg and the “rate of phosphate release” value ([1]; coupled to gPAPP alone) is reported as 38.1 pmol/min/µg.

B2: gPAPP: recombinant mouse gPAPP expressed in CHO cells, N-terminal His-tagged, amino acids E51 to K356 (protein, UniProt Q80V26 51-356, looked up, fragment)
chain: EVASDGGTVDLREMLAVAVLAAERGGDEVRRVRESNVLHEKSKGKTREGADDKMTSGDVLSNRKMFYLLKTAFPNVQINTEEHVDASDKEVIVWNRKIPEDILKEIAAPKEVPAESVTVWIDPLDATQEYTEDLRKYVTTMVCVAVNGKPVLGVIHKPFSEYTAWAMVDGGSNVKARSSYNEKTPKIIVSRSHAGMVKQVALQTFGNQTSIIPAGGAGYKVLALLDVPDMTQEKADLYIHVTYIKKWDICAGNAILKALGGHMTTLNGEEISYTGSDGIEGGLLASIRMNHQALVRKLPDLEKSGH
modifications: N-terminal His tag
notes: recombinant mouse gPAPP expressed in CHO cells, N-terminal His-tagged, amino acids E51 to K356
With B2 the “Mg2+ concentration at which maximum activity was achieved” value ([2]; 25 mM Tris pH 7.5) was “greater than 10 mM”, the “pH of optimal activity” value ([2]; 10 mM Mg2+) was roughly 7.5 and the “coupling capacity (PAP completely hydrolysed by 1 μg gPAPP)” value ([3]; 20 minute reaction) was 8 nmol. The “coupling capacity (PAP completely hydrolysed by 1 μg gPAPP)” value ([3]; 40 minute reaction) was 15 nmol.

B3: CHST3: recombinant human carbohydrate sulfotransferase 3 from R & D Systems (protein, UniProt Q7LGC8 1-479, looked up)
Carbohydrate sulfotransferase …: MEKGLTLPQDCRDFVHSLKMRSKYALFLVFVVIVFVFIEKENKIISRVSDKLKQIPQALADANSTDPALILAENASLLSLSELDSAFSQLQSRLRNLSLQLGVEPAMEAAGEEEEEQRKEEEPPRPAVAGPRRHVLLMATTRTGSSFVGEFFNQQGNIFYLFEPLWHIERTVSFEPGGANAAGSALVYRDVLKQLFLCDLYVLEHFITPLPEDHLTQFMFRRGSSRSLCEDPVCTPFVKKVFEKYHCKNRRCGPLNVTLAAEACRRKEHMALKAVRIRQLEFLQPLAEDPRLDLRVIQLVRDPRAVLASRMVAFAGKYKTWKKWLDDEGQDGLREEEVQRLRGNCESIRLSAELGLRQPAWLRGRYMLVRYEDVARGPLQKAREMYRFAGIPLTPQVEDWIQKNTQAAHDGSGIYSTQKNSSEQFEKWRFSMPFKLAQVVQAACGPAMRLFGYKLARDAAALTNRSVSLLEERGTFWVT
Work on B3 yielded a specific activity [4] of 1110 pmol/min/µg.
